Results as given in paper PMC8699698, “Oligomeric States and Hydrodynamic Properties of Lysyl Oxidase-Like 2” (Biomolecules, 2021).
Residue numbers refer to the chain shown, from its start. Names may count otherwise. “And” between values parts separate entries of the source, which are not always exact repeats. Identical values can stand only once.

Legend:
[1] = target: T1, full-length lysyl oxidase-like 2 (fl-LOXL2), wild type, Q9Y4K0; test: native gel or EMSA; Native PAGE, NativePAGE 4 to 16% Bis-Tris gels, 125 V for 2 h; self-association of purified LOXL2 forms; details: remark: other sources report otherwise
T1 chain: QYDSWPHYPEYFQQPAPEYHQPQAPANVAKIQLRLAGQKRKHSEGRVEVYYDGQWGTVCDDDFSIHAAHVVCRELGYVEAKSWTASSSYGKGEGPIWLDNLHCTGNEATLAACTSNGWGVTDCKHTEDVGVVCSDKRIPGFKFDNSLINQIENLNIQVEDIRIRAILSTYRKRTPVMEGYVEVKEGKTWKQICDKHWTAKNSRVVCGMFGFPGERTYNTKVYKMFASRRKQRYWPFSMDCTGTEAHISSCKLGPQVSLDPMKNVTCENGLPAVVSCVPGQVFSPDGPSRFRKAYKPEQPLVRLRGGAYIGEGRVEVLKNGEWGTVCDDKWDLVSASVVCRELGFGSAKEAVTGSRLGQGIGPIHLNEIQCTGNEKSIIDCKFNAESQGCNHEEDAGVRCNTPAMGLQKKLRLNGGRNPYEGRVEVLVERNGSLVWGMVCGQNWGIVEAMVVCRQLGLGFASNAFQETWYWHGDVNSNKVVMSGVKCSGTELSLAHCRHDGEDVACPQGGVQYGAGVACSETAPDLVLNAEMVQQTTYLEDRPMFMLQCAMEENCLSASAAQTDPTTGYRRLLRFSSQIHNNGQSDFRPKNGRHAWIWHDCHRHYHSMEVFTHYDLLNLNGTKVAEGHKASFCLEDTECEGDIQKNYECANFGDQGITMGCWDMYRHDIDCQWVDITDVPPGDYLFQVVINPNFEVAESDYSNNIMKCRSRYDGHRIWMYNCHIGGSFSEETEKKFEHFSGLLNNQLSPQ

[2] = target: T1, full-length lysyl oxidase-like 2 …; test: AUC; Sedimentation velocity, 20 °C, 40,000 RPM, 50 mM HEPES pH 8.0, fl-LOXL2 at 0.88, 0.30 and 0.088 mg/mL, c(s) model of SEDFIT; self-association; details: remark: other sources report otherwise
[3] = target: T1, full-length lysyl oxidase-like 2 …; test: SEC-MALS; Superdex 200 10/300, 50 mM Tris pH 8.0, 150 mM NaCl, 0.01% sodium azide; fl-LOXL2 at concentrations from 0.08 to 1.6 uM; self-association; details: remark: other sources report otherwise
[4] = target: the molecule itself; test: native gel or EMSA; Native PAGE, NativePAGE 4 to 16% Bis-Tris gels, 125 V for 2 h; self-association of purified LOXL2 forms

B1: full-length lysyl oxidase-like 2 (fl-LOXL2), wild type, Q9Y4K0 26-774 (enzyme)
chain: T1 chain
modifications: here or on the partner: lysine tyrosylquinone (LTQ) cofactor (precursor residues Lys653 and Tyr689), Cu2+ bound; N-glycans (N-glycosylation sites Asn288, Asn455, Asn644); lysine tyrosylquinone (LTQ) cofactor (precursor residues Lys653 and Tyr689), Cu2+ bound; N-glycans (N-glycosylation sites Asn288, Asn455, Asn644)
[1]
  stoichiometry N: 2 and 4
[2]
  percent of dimer: 11.6%
  percent of monomer: 83.6%
  percent of tetramer and pentamer together: 4.7%
  stoichiometry N: 4 and 5 and 2
[3]
  stoichiometry N: 2 and 4

B2: K317R-LOXL2, full-length form (furin-cleavage site engineered) (enzyme, UniProt Q9Y4K0 26-774, looked up)
chain: T1 chain with K292R
notes: Lysyl oxidase-like 2 (LOXL2), K317R mutant, the full-length species in the K317R-LOXL2 lane of the native gel; the bands at ~175 and ~340 kDa are ascribed to its full-length form; also called K317R mutant
[4]
  stoichiometry N: 2 and 4

B3: R314A/R316A/K317Q-LOXL2 (AAQ-LOXL2, a PACE4 cleavage site null mutant), full length (enzyme, UniProt Q9Y4K0 26-774, looked up)
chain: T1 chain with R289A, R291A, K292Q
notes: Lysyl oxidase-like 2 (LOXL2), full-length form with the PACE4 cleavage site mutated (text: R314A/R316A/K317Q); Secreted protein; also called R315A/R316A/K317Q mutant form of LOXL2
[4]
  stoichiometry N: 2 and 4
